For test [1], the target named is T1, human αvβ6 on 293F:huβ6 cells (human, UniProt P06756 31-1048; P18564 22-788).
T1 construct: whole, on cells; also called HEK293F:huβ6
As to the kind of experiment: competition binding by flow cytometry on 293F:huβ6 cells. Here is the method: 0.1×10⁶ antigen expressing cells were aliquoted in each well of a 96-well v-bottom plate on ice. The cells were incubated for 1 hour with 2 nM AlexaFluor-647 labeled humanized 2A2 HCLG and increasing concentrations (from 4 pM-1 uM) of unlabeled humanized 2A2 HCLG antibody and h2A2-Mdpr-PEG(12)-gluc-MMAE(8) in buffer (Tris-buffered saline, 2% fetal bovine serum, 0.5 mM MnCl₂, 0.02% NaN₃). Cells were pelleted and washed 3 times with TBS/FBS. The cells were pelleted and resuspended in 125 uL of TBS/FBS. Fluorescent signal of binding was detected using a Becton Dickinson Biosciences LSR II (San Jose, CA). Percent of saturated fluorescent signal was used to determine percent labeled humanized 2A2 antibody bound to cells and to subsequently extrapolate the EC50 by fitting the data to a sigmoidal dose-response curve with variable slope using GraphPad Software (LaJolla, CA).

Test [2] concerns the target T2, human αvβ6 on 293F:huβ6 cells (human, UniProt P06756 31-1048; P18564 22-788).
T2 chain 1: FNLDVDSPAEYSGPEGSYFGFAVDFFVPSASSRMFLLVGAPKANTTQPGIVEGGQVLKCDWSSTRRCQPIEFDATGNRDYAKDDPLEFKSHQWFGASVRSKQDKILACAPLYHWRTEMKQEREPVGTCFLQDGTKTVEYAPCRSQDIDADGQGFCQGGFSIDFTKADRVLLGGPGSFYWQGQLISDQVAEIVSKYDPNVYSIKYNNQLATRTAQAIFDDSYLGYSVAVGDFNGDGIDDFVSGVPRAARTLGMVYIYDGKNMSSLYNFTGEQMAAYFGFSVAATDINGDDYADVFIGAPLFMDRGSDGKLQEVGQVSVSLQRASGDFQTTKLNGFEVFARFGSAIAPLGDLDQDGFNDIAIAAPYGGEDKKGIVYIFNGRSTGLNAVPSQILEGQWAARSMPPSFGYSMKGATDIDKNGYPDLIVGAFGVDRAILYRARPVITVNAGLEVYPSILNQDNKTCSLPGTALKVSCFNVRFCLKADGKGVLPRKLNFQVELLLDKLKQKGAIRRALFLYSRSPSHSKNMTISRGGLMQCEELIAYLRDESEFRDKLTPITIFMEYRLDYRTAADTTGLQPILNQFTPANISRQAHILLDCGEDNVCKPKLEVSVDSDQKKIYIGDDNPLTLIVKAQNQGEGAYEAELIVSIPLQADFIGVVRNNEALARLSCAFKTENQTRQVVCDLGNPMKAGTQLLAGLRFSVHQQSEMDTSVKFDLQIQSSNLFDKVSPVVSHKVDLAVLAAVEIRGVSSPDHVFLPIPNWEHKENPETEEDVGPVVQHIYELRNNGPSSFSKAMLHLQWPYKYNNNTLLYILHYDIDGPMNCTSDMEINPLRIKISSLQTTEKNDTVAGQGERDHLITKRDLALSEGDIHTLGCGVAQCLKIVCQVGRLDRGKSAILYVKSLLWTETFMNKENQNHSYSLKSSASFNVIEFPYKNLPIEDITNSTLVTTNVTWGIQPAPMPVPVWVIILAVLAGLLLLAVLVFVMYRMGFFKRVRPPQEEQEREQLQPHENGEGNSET
T2 chain 2: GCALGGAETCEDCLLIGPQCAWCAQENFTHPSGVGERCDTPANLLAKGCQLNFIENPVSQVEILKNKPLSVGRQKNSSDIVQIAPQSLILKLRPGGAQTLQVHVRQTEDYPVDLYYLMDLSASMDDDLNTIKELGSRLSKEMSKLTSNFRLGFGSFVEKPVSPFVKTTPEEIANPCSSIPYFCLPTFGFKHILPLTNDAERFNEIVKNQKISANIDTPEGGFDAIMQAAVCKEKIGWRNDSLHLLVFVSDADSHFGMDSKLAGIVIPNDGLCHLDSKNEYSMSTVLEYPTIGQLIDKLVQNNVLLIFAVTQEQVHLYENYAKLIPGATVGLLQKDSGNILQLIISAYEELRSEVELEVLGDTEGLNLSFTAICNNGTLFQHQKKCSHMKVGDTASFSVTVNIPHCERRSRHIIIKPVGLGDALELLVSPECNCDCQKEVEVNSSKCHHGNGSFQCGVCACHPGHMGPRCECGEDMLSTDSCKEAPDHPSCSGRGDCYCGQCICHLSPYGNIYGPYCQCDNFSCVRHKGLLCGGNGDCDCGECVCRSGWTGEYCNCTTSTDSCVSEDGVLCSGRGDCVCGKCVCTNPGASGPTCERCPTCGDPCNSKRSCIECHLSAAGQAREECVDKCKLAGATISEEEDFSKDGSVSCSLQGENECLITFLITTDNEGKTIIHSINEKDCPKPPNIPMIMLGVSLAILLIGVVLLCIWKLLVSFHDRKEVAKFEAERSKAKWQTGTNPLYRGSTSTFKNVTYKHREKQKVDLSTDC
As to the kind of experiment: competition binding on 293F cells.

Test [3] has as its target T3, cyno αvβ6 on 293F:cynoβ6 cells (human;Macaca fascicularis, UniProt P06756 31-1048; A0A2K5TZ36 22-787).
T3 chain 1: T2 chain 1
T3 chain 2: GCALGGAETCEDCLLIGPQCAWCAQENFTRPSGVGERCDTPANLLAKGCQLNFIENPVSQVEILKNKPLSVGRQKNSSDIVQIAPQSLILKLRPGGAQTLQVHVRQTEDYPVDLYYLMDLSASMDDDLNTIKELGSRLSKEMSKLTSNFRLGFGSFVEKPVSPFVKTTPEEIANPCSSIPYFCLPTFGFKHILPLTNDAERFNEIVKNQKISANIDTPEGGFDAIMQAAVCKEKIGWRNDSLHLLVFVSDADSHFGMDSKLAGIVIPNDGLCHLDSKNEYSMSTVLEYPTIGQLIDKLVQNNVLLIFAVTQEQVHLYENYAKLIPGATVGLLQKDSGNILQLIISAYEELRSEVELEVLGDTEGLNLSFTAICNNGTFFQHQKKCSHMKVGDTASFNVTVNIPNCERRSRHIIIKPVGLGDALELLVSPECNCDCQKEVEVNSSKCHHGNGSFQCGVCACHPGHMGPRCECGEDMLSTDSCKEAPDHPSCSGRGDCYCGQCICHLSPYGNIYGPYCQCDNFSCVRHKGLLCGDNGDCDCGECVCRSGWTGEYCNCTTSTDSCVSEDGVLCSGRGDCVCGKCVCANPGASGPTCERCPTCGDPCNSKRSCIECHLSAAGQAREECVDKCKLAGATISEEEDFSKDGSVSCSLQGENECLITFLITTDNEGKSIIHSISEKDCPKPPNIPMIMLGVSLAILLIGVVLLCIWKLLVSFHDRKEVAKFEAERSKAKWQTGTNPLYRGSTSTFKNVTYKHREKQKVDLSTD
In words: competition binding on 293F cells.

For test [4], the target named is T2, human αvβ6 on 293F:huβ6 cells. As to the kind of experiment: competition binding on 293F cells; 2nM m2A2-AF647 competitor.
Test [5] has the same target. In words: saturation binding on 293F cells; AF647-labeled.
In test [6] the target is T3, cyno αvβ6 on 293F:cynoβ6 cells. In words: saturation binding on 293F cells; AF647-labeled.
In test [7] the target is T2, human αvβ6 on 293F:huβ6 cells. As to the kind of experiment: competition binding on 293F cells; 2nM m2A2-AF647 competitor.
Test [8] deals with T4, αvβ5 on the αvβ5-positive parental line (293F:vector) (human, UniProt P06756 31-1048; P18084 24-799).
T4 construct: whole, on cells; HEK293F cells transfected with the empty vector, used as negative control; also called HEK293F:vector
T4 sequence (P18084 24-799, one chain of several): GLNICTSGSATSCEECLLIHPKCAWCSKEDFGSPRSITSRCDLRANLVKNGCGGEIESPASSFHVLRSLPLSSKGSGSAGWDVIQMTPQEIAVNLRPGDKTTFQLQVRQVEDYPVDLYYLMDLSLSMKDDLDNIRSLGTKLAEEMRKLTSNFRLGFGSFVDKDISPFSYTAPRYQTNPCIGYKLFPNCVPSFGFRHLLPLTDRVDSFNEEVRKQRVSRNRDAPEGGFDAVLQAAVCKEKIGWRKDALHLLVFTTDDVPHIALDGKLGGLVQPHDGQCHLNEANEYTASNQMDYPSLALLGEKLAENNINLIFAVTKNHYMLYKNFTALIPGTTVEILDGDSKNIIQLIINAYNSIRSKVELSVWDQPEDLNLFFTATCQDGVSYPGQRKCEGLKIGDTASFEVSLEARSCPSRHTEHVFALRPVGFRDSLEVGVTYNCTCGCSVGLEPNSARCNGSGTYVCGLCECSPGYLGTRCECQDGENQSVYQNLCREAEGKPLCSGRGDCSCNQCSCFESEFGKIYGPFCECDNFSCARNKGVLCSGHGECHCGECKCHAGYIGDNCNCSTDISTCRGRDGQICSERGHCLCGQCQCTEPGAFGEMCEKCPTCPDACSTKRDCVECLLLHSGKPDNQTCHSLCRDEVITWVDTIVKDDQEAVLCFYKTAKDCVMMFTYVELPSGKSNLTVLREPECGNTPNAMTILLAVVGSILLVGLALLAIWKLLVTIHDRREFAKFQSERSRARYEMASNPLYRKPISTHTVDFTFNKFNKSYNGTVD
In words: FMAT and flow cytometry binding studies on cells.

The target in test [9] is T1, human αvβ6 on 293F:huβ6 cells. As to the kind of experiment: FMAT and flow cytometry binding studies on cells. In general terms: Flow cytometry measures light scatter and fluorescence of single cells or particles in a stream.
In test [10] the target is T2, human αvβ6 on 293F:huβ6 cells. In words: saturation binding on 293F cells; AF647-labeled.
Test [11] addresses T3, cyno αvβ6 on 293F:cynoβ6 cells. As to the kind of experiment: saturation binding on 293F cells; AF647-labeled.
Test [12] has as its target T2, human αvβ6 on 293F:huβ6 cells. As to the kind of experiment: competition binding on 293F cells; 2nM m2A2-AF647 competitor.

This is an account of results in US20250242041A1 (Seagen, published 2025).

By EC50 is commonly meant the concentration at which the effect is half-maximal. A low value points to higher potency in that assay.

B1: h2A2-Mdpr-PEG(12)-gluc-MMAE(8) (antibody, human IgG1, kappa, V domains shown)
VH: QFQLVQSGAEVKKPGASVKVSCKASGYSFTDYNVNWVRQAPGQGLEWIGVINPKYGTTRYNQKFKGRATLTVDKSTSTAYMELSSLRSEDTAVYYCTRGLNAWDYWGQGTLVTVSS
VL: DIQMTQSPSSLSASVGDRVTITCGASENIYGALNWYQQKPGKAPKLLIYGATNLEDGVPSRFSGSGSGRDYTFTISSLQPEDIATYYCQNVLTTPYTFGQGTKLEIKR
modifications: SGD-5088 drug-linker (Mdpr-PEG(12)-gluc-MMAE) on cysteines of the reduced interchain disulfides, eight copies of drug-linker per antibody
notes: also called ADC prepared with h2A2 HCLG and the SGD-5088 drug-linker; HCLG ADC
With B1, the binding result in [1] was “binds”. In addition, the EC50 in test [2] and in test [3] was 4 nM each time.

B2: murine monoclonal antibody 2A2 (antibody, V domains shown)
VH: EFQLQQSGPELVKPGASVKISCKASGYSFTDYNVNWVKQSNGKSLEWIGVINPKYGTTRYNQKFKGKATLTVDKPSSTAYMQLNSLTSEDSAVYYCTRGLNAWDYWGQGASVTVSS
VL: DIQMTQSPASLSASVGETVTITCGASENIYGALNWYQRKQGKSPQLLIYGATNLADGMSSRFSGSGSGRQYSFKISSLHPDDVATYYCQNVLTTPYTFGGGTKLEIK
notes: Mouse hybridoma IgG; also called m2A2; mouse 2A2
With B2, the EC50 in test [4] was found to be 3 nM; in test [5], 0.5 nM; in test [6], 0.4 nM; in test [7], 3 nM; in [10], 0.5 nM; in test [11], 0.4 nM. For the same molecule, a half-maximal effect in test [12] (EC50) was put at 2 nM. In addition, the binding result in test [8] was “no binding”; in [9], “binds”.
